US20240216557A1 (Memorial Sloan Kettering, published 2024)
Positions count from the first letter of the chain named.

T1: hDLL3 (human, UniProt Q9NYJ7 27-479, limits assumed)
T1 construct: also called human DLL3
T1 sequence: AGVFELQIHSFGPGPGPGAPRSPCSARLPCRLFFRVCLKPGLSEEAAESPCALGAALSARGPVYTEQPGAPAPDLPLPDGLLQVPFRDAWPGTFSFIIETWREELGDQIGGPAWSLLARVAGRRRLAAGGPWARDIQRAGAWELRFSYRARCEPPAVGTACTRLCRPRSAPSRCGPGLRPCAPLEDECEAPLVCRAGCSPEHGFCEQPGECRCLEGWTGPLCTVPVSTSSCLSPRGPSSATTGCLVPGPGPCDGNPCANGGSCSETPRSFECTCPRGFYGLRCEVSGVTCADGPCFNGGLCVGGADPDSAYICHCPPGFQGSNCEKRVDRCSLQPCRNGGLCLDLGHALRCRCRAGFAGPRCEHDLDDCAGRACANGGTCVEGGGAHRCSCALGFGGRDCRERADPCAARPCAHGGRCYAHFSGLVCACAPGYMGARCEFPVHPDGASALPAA

T2: Recombinant Human DLL3 Protein (amino acids Ala27-Ala479, cat #9749-DL, R&D Systems) (human, UniProt Q9NYJ7 27-479)
T2 construct: Bought protein
T2 sequence: T1 sequence

B1: J8 (antibody, V domains shown)
VH: QVHLVQSGAEVKKPGASVKVSCKASGYTFTIYYIHWVRQAPGQGLEWMGIINPSGGSTSYAQKFQGRVTMTRDTSTSTVYMELSSLRSEDTAVYYCSGNDYVDYVTTDYYGMDVWGQGTTVTVSS
VL: DIQMTQSPSSLSASVGDRVTITCRASQGISNYLAWFQQKPGKAPKSLIYAASSLQSGVPSKFSGSGSGTDFTLTISSLQPEDFATYYCQQYNSSPYTFGQGTKLEIK
B2: B2 (antibody, V domains shown)
VH: QVQLVQSGAEVKKPGASVKVSCKASGYTFTSYYMHWVRQAPGQGLEWMGIINPSGGSTSYAQKFRGRVTMTRDTSTSTVYMELSSLRSEDTAVYYCARGDYDILTDYYYNMDVWGQGTTVTVSS
VL: B1 VL with S10A, L11M, A43V, S46R, K61R, D70E, Q89L, Y91H, S94Y
B3: L22 (antibody, V domains shown)
VH: EVQLLESGGGLVQPGGSLRLSCAASGFTFSSYAMGWVRQTPGKGLEWVSTISGRGGDTYYADSVKGRFTISRDNSKNTLYLQMNSLRAEDTAIYYCAKERGLGFDYWGQGTLVTVSS
VL: DIVMTQTPLSLPVTPGEPASISCRSSQSLLDSDDGNTYLDWYLQKPGQSPQLLIYTLSYRASGVPDRFSGSGSGTDFTLKISRVEAEDVGVYYCMQHLEFPLTFGGGTKVEIK
B4: B22 (antibody, V domains shown)
VH: EVQLVESGGGLVQPGGSLRLSCAASGFTFNNFWMSWVRQAPGKGLEWVANIKQDGSEKYYVDSVKGRFTISRDNAKNSLYLQMNSLRAEDTAVYYCARESYFDLWGRGTLVTVSS
VL: QAVVTQESALTTSPGETVTLTCRSSTGAVTTSNYANWVQEKPDHLFTGLIGGTNNRAPGVPARFSGSLIGDKAALTITGAQTEDEAIYFCALWYSNRWVFGGGTKLTVL
notes: Purified hybridoma monoclonal antibody; loaded on anti-mouse Fc sensors in BLI
B5: O24 (antibody, V domains shown)
VH: QVQLVQSGAEVKKPGASVKVSCKASGYTFTSYYLHWVRQAPGHGLEWMAIINPSGGSTSYAQKFLGRVTMTRDTSTNTVYMELSSLRSEDTAVYYCARERQQLDYYYFAMDVWGQGTTVTVSS
VL: B1 VL with S94Y, Y96P, L104V
notes: the description prints the designation as '024' (zero); also called 024
B6: E9 (antibody, V domains shown)
VH: QVQLVQSGAEVKKPGASVKVSCKASGYTFTSYYMHWVRQAPGQGLEWMGVINSSGGSTSYAQKFQGRVTMTRDTSTSTVYMDLSSLRSEDTAVYYCARGYCTNGVYYDEDFDYWGQGTLVTVSS
VL: B1 VL with N31H, K45T, S94Y, Y96L, Q100G, L104V
notes: Purified hybridoma monoclonal antibody (Ablexis AlivaMab Kappa mice); loaded on anti-mouse Fc sensors in BLI
B7: G3 (antibody, V domains shown)
VH: QVQLQESGPGLVKPSETLFLTCTVSGGSISSYYWTWIRQPAGKGLEWIGRIYTSGSTNYNPSLKSRVTMSVDTSKNQFSLKLSSVTAADTAVYYCAREDWESWTFDIWGQGTMVTVSS
VL: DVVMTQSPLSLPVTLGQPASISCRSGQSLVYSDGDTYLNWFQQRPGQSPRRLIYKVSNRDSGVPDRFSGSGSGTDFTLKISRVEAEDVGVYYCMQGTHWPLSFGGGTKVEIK
notes: as for B4
B8: F21 (antibody, V domains shown)
VH: EVQLVESGGGLVQPGGSLRLSCAASGFTFSSYWMSWVRQAPGKGLEWVANIKQDGSEKYYVDSVKGRFTISRDNAKNSLYLQMNSLRAEDTAVYYCAREWLRFGGLVYWGQGTLVTVSS
VL: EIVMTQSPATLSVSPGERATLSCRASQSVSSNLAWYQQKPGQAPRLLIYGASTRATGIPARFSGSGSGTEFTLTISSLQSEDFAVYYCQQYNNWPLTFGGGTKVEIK
notes: as for B4
B9: F9 (antibody, V domains shown)
VH: QVQLVQSGAEVKKPGASVQVSCKASGYTFTSYYMHWVRQAPGQGLEWMGIINPSGGSTSYAQKFQGRVTMTRDTSTSTVYMELSSLRSEDTAVYYCARQGGAQWLVLAFDIWGQGTMVTVSS
VL: EIVLTQSPGTLSLSPGERATLSCRASQSVSSYLAWYQQKPGQPPRLLIYGASSRATGIPDRFSGGGSGTDFTLTISRLEPEDFAVYYCQQYDSSPYTFGQGTKLEIK
notes: also called 1F9
B10: G16 (antibody, V domains shown)
VH: B9 VH
VL: B9 VL with P43A, D92G
notes: as for B4
B11: P4 (antibody, V domains shown)
VH: EVQLVESGGGLVKPGGSLRLSCAASGFTFSFYSMNWVRQAPGKGLEWVSSISSSSSYIYYADSVKGRFTISRDNAKNSLYLQMNSLRAEDTAVYYCARNYDFWRGAFDIWGQGTMVTVSS
VL: not shown
notes: as for B4
B12: E23 (antibody, V domains shown)
VH: QVQLVQSGAEVRKPGASVKVSCKASGYTFTGYYMHWVRQAPGQGLEWMGWINSYSGGANYAQKFQDRVTMTRDTSVSTASMELSRLRSDDTAVYYCARDGSGWYGSYFDFWGQGTLVTVSS
VL: DIVMTQTPLSSPVTLGQPASISCRSSQSLVHSDGNTYLSWLQQRPGQPPRLLIYKISNRFSGVPDRFSGSGAGTDFTLKISRVEAEDVGFYYCIQTTQFPLTFGGGTKVEIK
notes: loaded on anti-mouse Fc sensors in BLI
B13: D8 (antibody, V domains shown)
VH: QVQLVQSGAEVKKPGASVKVSCKASGYTFTTYYMHWVRQAPGQGLEWMGIINPSGGSTSYAQKFQGRVTMTRDTSTSTVYMELSSLRSEDTAVYYCARQGHYIGNYLDYWGQGTLVTVSS
VL: not shown
notes: as for B4
B14: L12 (antibody, V domains shown)
VH: B13 VH with T31S, T58R, G100L, H101E, Y102L, I103L, Y106A, L107F, Y109I, L115M
VL: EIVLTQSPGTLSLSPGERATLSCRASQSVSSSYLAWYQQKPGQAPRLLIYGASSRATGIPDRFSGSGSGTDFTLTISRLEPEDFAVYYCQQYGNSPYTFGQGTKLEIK
notes: as for B4
B15: C22 (antibody, V domains shown)
VH: B13 VH with T31S, Q99V, G100A, H101D, Y102I, I103V, N105A, Y106T, L107F
VL: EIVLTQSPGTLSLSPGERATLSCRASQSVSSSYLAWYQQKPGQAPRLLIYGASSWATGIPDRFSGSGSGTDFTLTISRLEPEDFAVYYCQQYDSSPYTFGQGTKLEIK
notes: as for B4
B16: M11 (antibody, V domains shown)
VH: QVQLVQSGAEVKKPGASVKVSCKASGYTFTSYYIHWVRQAPGQGLEWMGIINPSGGSKSYAQKFQGRVTMTRDTSTGTVYMELSSLRSEDTAVYYCAGQLELLGNAFDIWGQGTMVTVSS
VL: not shown
notes: as for B4
B17: J23 (antibody, V domains shown)
VH: B13 VH with T31S, P53Y, T58K, A92G, H101R, I103S, N105S
VL: not shown
notes: as for B4
B18: A18 (antibody, V domains shown)
VH: QVTLRESGPALVKSTQTLTLTCTFSGFSLSTSGMCVSWIRQTPGKALEWLALIDWDDNKYYSTSLKTRLIISKDTSKNQVVLTMTNMEPVDTATYYCARIRGYSGSYDAFDIWGQGTMVTVSS
VL: DIVMTQSPLSLPVTPGEPASISCRSSQSLLHSNGYNYLDWYLQKPGQSPHILLYLGSNRAPGVPDRFSGSGSGTDFTLKISRVEAEDVGVYYCMQALQTPFTFGPGTKVDIK
notes: Purified hybridoma monoclonal antibody

Each binder was assayed against T1, hDLL3 (assay: ELISA; signal unit not stated).
For B1, the “ELISA hDLL3” value was 1.38. With B2 the “ELISA hDLL3” value was 1.21. With B3 the “ELISA hDLL3” value was 1.64.

The binders below were run against hDLL4 (human, UniProt Q9NR61 27-524, limits assumed) (assay: ELISA; signal unit not stated).
Sequence of hDLL4 (Q9NR61 27-524 limits assumed): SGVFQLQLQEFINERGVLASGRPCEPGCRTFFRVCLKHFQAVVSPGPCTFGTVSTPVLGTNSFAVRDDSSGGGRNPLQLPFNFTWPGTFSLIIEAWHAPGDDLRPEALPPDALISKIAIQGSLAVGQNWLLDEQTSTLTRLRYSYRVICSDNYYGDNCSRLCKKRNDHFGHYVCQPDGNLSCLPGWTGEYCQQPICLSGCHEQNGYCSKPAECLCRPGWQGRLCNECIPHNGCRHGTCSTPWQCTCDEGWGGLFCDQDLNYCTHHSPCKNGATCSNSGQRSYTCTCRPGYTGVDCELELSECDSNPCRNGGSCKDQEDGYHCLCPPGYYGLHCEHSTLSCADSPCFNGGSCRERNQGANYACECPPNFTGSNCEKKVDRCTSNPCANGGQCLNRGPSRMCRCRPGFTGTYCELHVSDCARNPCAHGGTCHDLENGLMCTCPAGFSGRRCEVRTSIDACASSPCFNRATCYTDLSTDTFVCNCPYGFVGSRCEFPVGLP
For B1, the “ELISA hDLL4” value was 0.085. In the case of B2, the “ELISA hDLL4” value is reported as 0.043. With B3 the “ELISA hDLL4” value was 0.056.

The binders below were run against T1, hDLL3 (assay: method not stated (column 'Affinity hDLL3')).
With B1 the Kd was under 0.001 nM. In the case of B3, the Kd is reported as 1.46 nM.

These binders were tested against T2, Recombinant Human DLL3 Protein (amino …) (assay: BLI, Octet HTX, 25 C; mAb on anti-mouse Fc sensors, DLL3 as analyte from 200 nM).
Method: The 23 purified monoclonal antibodies (5 μg/mL each) were loaded onto anti-mouse Fc sensors.
B4 was tested, and the Kd was 1.84 nM. Work on B1 yielded a Kd of 0.001 nM. B2 showed a Kd of 1.46 nM. B5 was tested, and the Kd was 1.28 nM. B6 showed a Kd of 0.3 nM. B7 gave a Kd of 0.908 nM. B3 gave a Kd of 3.55 nM. With B8 the Kd was 6.12 nM. Work on B9 yielded a Kd of 3.01 nM. B10 gave a Kd of 4.88 nM. For B11, the Kd was 6.5 nM. In the case of B12, the Kd is reported as 0.511 nM. With B13 the Kd was 0.438 nM. In the case of B14, the Kd is reported as 3.1 nM. B15 was tested, and the Kd was 0.431 nM. Binder B16 has a Kd of 2.76 nM. For B17, the Kd was 0.998 nM. With B18 the Kd was 0.236 nM.
